Key:
chimeric M4R (RGLG-2) = molecular target: T1, chimeric M4R (RGLG-2) (Homo sapiens, UniProt P08173); test: BRET assay of the invention, cells co-expressing chimeric M4R (RGLG-2) and FP-Gγ9; assay type: cell-based; details: cells incubated over night with 100 ng/ml PTX
T1 construct: ID; NOs; expressed in transfected cells
Experimental: The same cells as described for FIG. 10 A were used. […] The decrease of the signal below baseline in the PTX-treated condition confirms a constitutive activity that has been described for the M4R. […]
A typical experiment has the following sequence.
The assay of the present invention was compared with a state of the art calcium based assay. […] In calcium-based assay, a calcium flux is measured in cells co-expressing recombinant M4R and modified Gαq. In the assay in accordance with the present invention, BRET in measured in cells co-expressing a chimeric M4R according to RGLG-2 (construct and cell-line from FIG. 2C, Table 6) and FP-Gγ9 (as described in FIG. 10A). The data represent mean values and they are normalized to the maximal effect of the orthosteric agonist after the subtraction of the basal values.

[1] = molecular target: T2, M4R RGLG-2 with Gαo C351S (Homo sapiens, UniProt P08173+P09471, C351S); test: BRET assay, chimeric M4R with PTX-insensitive mutant (C351S) of Gαo in the RGLG-2 fusion construct; assay type: cell-based; details: same conditions as FIG. 10B
T2 construct: ID; NOs; expressed in transfected cells
Experimental: Cells lines were prepared as described above (Examples 13-34).

[2] = molecular target: human M1 receptor (M1R) RGLG-3 (Homo sapiens, UniProt P11229)
Experimental: Cells co-express a construct comprising a human M1 receptor (M1R) fused to a split Gαq protein harboring a luminescent protein (construct RGLG-3, FIG. 2C, Table 6) and the FP-Gγ9 construct (as above).
5 or 10 minutes after the addition of coelenterazine H to the cells, the read plate is placed in the FLIPR tetra and the measurement begins.
A second plate is a compound plate, containing a mix of an agonist at its EC20 or EC80 and candidate agents to be tested if the protocol run on the FLIPR tetra is a one-addition (or co-addition) protocol (as in FIGS. 3A, 3B, 4, 5A, 6, 7B, 7C, 10B, 10C, 11B, 13, 14, 19 and 20). Alternatively, a two-addition protocol can be run on the FLIPR tetra, containing two compound plates, of which the first one usually contains different candidate agents and the second one an agonist at its EC20 or EC80 (as in FIGS. 5B, 5C, 7A, 9, 10A, 11A, 12, 15, 16, and 18). […]
The camera is adjusted in such a way that the gain is set to a maximum of 28,000× and the shutters are opened 100%. […] The read interval (emission filter 1, emission filter 2) is adjusted to the minimal value that results from the addition of the two exposure times (=2×0.1 to 3 seconds) plus the time needed to move the filters from position 1 to position 2 (0.3 sec), resulting in a maximal read frequency of 0.5 seconds (2 Hz). […]

[3] = molecular target: T3, GLP1R-L-G (human GLP-1 receptor) (Homo sapiens, UniProt P43220); test: BRET assay, HEK cells transiently co-transfected with GLP1R-L-G and a Gγ construct; assay type: cell-based; details: cells coexpressing GLP1R-L-G and the Gγ construct, exposed to GLP-1
T3 construct: ID; expressed in transfected cells; host or cells: HEK cells, transient
T3 sequence (P43220 with tags, fused parts or gaps): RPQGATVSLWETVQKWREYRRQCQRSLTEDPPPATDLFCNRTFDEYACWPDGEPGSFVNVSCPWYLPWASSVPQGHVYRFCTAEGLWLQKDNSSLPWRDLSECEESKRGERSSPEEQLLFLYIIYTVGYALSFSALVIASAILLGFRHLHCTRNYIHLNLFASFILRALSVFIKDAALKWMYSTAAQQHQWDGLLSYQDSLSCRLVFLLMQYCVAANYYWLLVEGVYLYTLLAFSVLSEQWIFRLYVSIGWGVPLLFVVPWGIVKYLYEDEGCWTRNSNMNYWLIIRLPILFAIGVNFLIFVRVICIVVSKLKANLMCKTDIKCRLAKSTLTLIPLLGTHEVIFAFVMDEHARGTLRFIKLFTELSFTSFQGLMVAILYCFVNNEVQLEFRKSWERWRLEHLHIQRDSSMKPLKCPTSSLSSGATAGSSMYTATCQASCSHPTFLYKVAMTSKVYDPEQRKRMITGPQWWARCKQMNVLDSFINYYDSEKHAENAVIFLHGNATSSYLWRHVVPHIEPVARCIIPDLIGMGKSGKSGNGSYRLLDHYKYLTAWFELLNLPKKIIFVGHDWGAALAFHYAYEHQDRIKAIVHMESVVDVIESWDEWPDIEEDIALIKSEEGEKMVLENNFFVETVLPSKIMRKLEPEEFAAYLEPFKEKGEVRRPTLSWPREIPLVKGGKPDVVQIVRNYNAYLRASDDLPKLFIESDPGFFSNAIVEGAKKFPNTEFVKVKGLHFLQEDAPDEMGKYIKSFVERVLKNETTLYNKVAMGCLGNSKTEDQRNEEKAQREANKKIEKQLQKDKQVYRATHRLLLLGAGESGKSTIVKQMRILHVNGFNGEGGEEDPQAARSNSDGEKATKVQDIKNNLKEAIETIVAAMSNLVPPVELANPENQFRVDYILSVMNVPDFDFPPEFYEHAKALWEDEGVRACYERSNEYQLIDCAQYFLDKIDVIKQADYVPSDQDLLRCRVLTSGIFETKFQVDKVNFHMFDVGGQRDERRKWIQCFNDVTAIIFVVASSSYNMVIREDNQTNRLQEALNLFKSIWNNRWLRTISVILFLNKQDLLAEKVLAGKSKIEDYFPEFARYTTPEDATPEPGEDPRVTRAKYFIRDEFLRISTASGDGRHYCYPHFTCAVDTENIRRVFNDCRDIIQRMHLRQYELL

[4] = molecular target: T4, M4R-GLG2 (human muscarinic acetylcholine receptor M4) (Homo sapiens, UniProt P08173); test: BRET assay, HEK cells transiently co-transfected with M4R-GLG2 and a Gγ construct; assay type: cell-based; set-up: key to the marks not given beside the values; details: cells coexpressing M4R-GLG2 and the Gγ construct, exposed to ACh
T4 construct: ID; NOs; expressed in transfected cells; host or cells: HEK cells, transient

[5] = molecular target: T5, GIPR-L-G (human GIP receptor) (Homo sapiens, UniProt P48546); test: BRET assay, HEK cells transiently co-transfected with GIPR-L-G and a Gγ construct; assay type: cell-based; details: cells coexpressing GIPR-L-G and the Gγ construct, exposed to GIP
T5 construct: ID; NOs; expressed in transfected cells; host or cells: HEK cells, transient
T5 sequence (P48546 with tags, fused parts or gaps): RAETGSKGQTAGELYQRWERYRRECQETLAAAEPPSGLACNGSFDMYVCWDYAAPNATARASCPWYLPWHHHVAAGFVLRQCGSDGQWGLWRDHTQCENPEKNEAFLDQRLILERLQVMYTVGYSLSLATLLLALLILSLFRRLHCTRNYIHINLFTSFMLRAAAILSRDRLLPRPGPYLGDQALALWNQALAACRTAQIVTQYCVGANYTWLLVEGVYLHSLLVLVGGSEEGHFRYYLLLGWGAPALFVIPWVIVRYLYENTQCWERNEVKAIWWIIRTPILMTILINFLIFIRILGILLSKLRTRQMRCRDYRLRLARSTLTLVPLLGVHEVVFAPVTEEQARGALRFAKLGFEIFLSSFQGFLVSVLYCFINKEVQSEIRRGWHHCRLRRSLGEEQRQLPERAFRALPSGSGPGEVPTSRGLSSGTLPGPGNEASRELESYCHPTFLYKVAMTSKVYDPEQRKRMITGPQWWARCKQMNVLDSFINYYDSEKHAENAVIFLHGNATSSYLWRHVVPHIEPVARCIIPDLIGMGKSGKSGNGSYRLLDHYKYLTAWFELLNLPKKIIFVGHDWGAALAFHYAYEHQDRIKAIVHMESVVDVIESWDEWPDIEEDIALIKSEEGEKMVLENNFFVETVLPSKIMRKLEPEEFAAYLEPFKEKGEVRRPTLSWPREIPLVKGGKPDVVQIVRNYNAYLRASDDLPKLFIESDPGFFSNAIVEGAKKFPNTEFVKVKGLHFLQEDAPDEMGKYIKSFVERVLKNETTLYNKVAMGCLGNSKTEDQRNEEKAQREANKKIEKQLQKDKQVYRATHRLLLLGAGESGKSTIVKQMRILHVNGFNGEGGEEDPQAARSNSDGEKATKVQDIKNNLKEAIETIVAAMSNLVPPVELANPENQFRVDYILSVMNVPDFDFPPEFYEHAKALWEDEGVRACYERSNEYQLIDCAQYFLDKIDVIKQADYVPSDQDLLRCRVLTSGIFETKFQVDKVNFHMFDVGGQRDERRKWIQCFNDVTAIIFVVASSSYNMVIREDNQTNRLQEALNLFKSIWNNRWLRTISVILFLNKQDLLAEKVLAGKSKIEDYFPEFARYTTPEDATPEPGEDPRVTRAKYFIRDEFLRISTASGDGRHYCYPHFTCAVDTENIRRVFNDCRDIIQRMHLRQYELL

[6] = molecular target: T6, A2AR-RGL (human A2A receptor) (Homo sapiens, UniProt P29274); test: BRET assay, HEK cells transiently co-transfected with A2AR-RGL and a Gγ construct; assay type: cell-based; set-up: key to the marks not given beside the values; details: cells coexpressing A2AR-RGL and the Gγ construct, exposed to Adenosine
T6 construct: ID; NOs; expressed in transfected cells; host or cells: HEK cells, transient

[7] = molecular target: T7, GCGR-RLG (glucagon receptor) (Homo sapiens, UniProt P47871); test: BRET assay, HEK cells transiently co-transfected with GCGR-RLG and a Gγ construct; assay type: cell-based; set-up: key to the marks not given beside the values; details: cells coexpressing GCGR-RLG and the Gγ construct, exposed to Glucagon
T7 construct: 39; GCGR; RLG; Gαs; 94, 95; FP-Gγ9; 3, 4; 15; expressed in transfected cells; host or cells: HEK cells, transient
T7 sequence (P47871 with tags, fused parts or gaps): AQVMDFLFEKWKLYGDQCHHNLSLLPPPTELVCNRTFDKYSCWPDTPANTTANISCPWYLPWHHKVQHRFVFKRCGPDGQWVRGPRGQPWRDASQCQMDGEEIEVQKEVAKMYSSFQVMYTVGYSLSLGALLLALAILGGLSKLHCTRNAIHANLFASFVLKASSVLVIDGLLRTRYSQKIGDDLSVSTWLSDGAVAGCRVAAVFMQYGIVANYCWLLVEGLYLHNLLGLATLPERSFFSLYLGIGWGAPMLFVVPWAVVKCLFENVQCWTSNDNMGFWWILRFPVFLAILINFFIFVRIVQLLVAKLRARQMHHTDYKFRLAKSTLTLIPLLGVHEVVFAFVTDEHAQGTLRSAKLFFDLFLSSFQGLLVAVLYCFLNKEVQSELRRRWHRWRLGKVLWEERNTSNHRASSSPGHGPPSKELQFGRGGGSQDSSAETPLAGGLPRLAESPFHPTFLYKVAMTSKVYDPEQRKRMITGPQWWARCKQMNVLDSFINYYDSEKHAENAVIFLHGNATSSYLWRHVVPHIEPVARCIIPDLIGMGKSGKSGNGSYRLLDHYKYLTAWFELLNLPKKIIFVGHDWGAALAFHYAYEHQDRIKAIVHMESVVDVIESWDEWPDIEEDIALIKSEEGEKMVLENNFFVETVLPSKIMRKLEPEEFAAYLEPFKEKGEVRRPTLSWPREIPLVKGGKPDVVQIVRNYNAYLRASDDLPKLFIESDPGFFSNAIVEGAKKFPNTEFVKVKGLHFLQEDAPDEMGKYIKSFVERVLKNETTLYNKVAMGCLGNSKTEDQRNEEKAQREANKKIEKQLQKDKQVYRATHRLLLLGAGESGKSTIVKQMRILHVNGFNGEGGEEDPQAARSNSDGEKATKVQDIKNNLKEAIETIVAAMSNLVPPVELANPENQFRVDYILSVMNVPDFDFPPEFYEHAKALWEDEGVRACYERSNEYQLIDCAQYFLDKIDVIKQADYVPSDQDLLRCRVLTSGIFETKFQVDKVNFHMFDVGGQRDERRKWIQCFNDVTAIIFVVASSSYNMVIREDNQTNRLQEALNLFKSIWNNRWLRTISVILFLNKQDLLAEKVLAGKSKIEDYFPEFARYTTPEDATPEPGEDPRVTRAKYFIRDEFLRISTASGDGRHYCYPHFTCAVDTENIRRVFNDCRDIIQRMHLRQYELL

GHSR-RLG (hGHSR) = molecular target: T8, GHSR-RLG (hGHSR) (Homo sapiens, UniProt Q92847); test: BRET assay, HEK cells transiently co-transfected with GHSR-RLG and a Gγ construct; assay type: cell-based; set-up: key to the marks not given beside the values; details: cells coexpressing GHSR-RLG and the Gγ construct, exposed to Ghrelin
T8 construct: 37; hGHSR; RLG; Gαq; 90, 91; FP-Gγ9; 3, 4; 13; expressed in transfected cells; host or cells: HEK cells, transient
T8 sequence (Q92847 with tags, fused parts or gaps): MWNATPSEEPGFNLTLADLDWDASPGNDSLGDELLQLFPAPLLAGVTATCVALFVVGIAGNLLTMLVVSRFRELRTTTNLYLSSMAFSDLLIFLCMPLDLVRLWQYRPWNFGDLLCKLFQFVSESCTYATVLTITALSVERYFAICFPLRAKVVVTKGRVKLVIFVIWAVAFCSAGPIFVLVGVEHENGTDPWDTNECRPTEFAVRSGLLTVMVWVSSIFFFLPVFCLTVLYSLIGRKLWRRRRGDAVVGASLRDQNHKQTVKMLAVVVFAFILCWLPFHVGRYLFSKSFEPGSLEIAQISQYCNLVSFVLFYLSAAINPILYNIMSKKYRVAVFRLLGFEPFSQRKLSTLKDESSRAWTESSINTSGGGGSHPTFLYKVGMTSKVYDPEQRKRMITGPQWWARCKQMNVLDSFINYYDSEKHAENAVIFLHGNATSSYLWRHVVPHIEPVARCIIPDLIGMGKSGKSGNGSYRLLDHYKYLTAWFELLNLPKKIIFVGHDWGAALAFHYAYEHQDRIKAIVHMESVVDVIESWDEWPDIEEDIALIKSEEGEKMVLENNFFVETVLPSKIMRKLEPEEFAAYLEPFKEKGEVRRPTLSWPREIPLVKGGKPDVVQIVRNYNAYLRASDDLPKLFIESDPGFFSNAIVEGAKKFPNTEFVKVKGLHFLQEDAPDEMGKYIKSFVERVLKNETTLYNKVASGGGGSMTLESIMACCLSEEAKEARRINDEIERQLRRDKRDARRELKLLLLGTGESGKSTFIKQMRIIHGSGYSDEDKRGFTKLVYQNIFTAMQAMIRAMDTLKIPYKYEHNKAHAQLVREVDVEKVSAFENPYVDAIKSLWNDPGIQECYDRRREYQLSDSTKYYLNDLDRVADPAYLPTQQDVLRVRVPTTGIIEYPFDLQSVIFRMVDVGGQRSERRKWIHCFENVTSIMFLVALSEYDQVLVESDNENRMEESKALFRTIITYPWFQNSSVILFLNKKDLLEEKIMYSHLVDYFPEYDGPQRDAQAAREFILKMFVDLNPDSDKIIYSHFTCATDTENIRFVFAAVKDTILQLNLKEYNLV

[8] = molecular target: T9, M1R-GLG3 (human M1 receptor) (Homo sapiens, UniProt P11229); test: BRET assay, HEK cells transiently co-transfected with M1R-GLG3 and a Gγ construct; assay type: cell-based; set-up: key to the marks not given beside the values; details: cells coexpressing M1R-GLG3 and the Gγ construct, exposed to Acetylcholin
T9 construct: 35; hM1R; RGLG-3; Gαq; 86, 87; FP-Gγ9; 3, 4; 11A, 11B; expressed in transfected cells; host or cells: HEK cells, transient
T9 sequence (P11229 with tags, fused parts or gaps): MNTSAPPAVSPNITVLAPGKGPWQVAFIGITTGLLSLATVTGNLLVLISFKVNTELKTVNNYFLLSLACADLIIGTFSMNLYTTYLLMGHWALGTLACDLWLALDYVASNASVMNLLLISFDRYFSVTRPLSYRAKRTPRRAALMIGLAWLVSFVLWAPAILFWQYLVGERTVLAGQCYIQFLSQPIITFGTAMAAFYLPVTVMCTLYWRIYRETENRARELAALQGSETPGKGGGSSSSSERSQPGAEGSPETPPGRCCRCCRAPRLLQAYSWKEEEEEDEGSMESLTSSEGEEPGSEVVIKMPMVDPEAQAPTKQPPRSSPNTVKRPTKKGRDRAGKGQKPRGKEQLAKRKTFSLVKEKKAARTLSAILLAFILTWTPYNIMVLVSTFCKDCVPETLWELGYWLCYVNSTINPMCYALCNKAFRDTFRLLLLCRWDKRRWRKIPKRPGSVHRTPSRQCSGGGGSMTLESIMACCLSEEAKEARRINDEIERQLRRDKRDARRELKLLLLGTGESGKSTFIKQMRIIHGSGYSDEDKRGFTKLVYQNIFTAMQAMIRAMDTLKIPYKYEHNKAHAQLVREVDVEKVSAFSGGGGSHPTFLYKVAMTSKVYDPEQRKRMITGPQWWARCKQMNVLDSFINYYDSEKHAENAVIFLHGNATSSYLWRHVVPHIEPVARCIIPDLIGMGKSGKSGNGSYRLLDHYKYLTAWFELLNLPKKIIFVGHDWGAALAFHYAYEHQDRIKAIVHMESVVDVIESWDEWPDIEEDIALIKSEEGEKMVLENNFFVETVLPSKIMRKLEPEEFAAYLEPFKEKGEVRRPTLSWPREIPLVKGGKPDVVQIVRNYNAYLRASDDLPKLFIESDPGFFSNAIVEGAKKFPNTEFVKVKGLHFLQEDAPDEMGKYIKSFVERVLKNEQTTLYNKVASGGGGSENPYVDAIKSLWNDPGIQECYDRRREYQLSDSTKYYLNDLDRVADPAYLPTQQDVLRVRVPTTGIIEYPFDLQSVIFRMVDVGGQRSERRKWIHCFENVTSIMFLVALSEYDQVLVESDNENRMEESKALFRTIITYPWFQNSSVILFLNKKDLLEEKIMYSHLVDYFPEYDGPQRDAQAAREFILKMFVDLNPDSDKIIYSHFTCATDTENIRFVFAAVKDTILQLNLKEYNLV

For PTX, the “effect on BRET signal changes in response to Ach” value (chimeric M4R (RGLG-2)) was “effectively blocks the BRET signal changes”, the “effect on BRET signal changes in response to Ach, C351S Gαo mutant” value [1] was “rescued by the C351S substitution” and the “effect on BRET signal changes in response to Ach” value [2] was “no effect on the BRET signal changes”.

For “FP-Gγ9: fusion protein of yellow fluorescent protein YPet and human G-protein gamma9, SEQ. ID. NOs. 3, 4”, the HTS compat. [3] was “++”, the HTS compat. [4] was “++” and the HTS compat. [5] was “++”. For the same substance, the HTS compat. [6] was “++”, the HTS compat. [7] was “++” and the HTS compat. (GHSR-RLG (hGHSR)) was “++”. The HTS compat. [8] was “++”.

Reference: US20130035256A1, “Chimeric Polypeptides Useful in Proximal and Dynamic High-Throughput Screening Methods” (ADDEX PHARMA SA, priority 2010, published 2013)
